Here are results for 1 molecule from PMC9751095, “The mitochondrial chaperone TRAP1 regulates F-ATP synthase channel formation” (Cell Death and Differentiation, 2022).

The target of the assay is T1, recombinant mature human OSCP (human, UniProt P48047 24-213).
T1 construct: human F-ATP synthase subunit OSCP, mature protein
T1 sequence (looked up): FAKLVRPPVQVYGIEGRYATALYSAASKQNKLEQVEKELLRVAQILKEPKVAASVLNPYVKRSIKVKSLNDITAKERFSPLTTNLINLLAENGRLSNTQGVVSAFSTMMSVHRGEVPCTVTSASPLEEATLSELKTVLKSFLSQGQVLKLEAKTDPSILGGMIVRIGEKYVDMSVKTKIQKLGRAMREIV
As to the kind of experiment: SPR; Biacore T100, CM5 chip, CyPD immobilized by amine coupling (800-1200 RU); OSCP injected at increasing concentrations; Langmuir interaction model. The following applies: both partners purified.

B1: purified recombinant human cyclophilin D (enzyme)
chain: not shown
notes: human cyclophilin D, cDNA from a human placenta library; called 'recombinant mature human' for the SPR; also called CyPD; CypD; source: E. coli BL21(DE3)pLysS (plasmid pSUMO-Cyclophilin D), purified
In the case of B1, the binding result is “binds”.
